Assay results: patent US20240010720A1 (IOMX THERAPEUTICS, published 2024)
Residue numbers refer to the chain shown, from its start. Read-outs that look alike come from different tables or passages of the source. Blank lines part the entries; values can stand above or below the binder they belong to.

Legend:
[1] = molecular target: T1, human IGSF11 (VSIG3) on cells (human, UniProt Q5DX21 23-431); test: FACS, DMS 273 cells
T1 sequence: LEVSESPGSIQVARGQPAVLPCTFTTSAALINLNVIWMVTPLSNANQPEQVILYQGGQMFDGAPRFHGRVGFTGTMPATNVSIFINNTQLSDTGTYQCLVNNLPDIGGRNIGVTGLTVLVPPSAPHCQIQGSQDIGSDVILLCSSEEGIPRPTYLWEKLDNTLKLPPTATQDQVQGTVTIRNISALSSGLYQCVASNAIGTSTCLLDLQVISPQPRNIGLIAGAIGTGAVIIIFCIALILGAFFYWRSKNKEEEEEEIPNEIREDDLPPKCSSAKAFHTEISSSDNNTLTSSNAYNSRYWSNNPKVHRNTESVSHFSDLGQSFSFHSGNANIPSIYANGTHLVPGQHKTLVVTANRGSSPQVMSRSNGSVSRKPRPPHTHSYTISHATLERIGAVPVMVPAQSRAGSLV

[2] = molecular target: T2, His-tagged extracellular domain (ECD) of human IGSF11 (VSIG3) (human, UniProt Q5DX21 23-241); test: blocking ELISA: antibody pre-incubated with His-tagged IGSF11 ECD, complexes added to immobilised VSIR-Fc; y axis % remaining IGSF11 binding to VSIR, x axis nM IgG per legend
T2 construct: partly bought (SinoBiological 13094-H08H); also called IGSF11-HIS; HIS-IGSF11; not shown: HIS6 tag
T2 sequence: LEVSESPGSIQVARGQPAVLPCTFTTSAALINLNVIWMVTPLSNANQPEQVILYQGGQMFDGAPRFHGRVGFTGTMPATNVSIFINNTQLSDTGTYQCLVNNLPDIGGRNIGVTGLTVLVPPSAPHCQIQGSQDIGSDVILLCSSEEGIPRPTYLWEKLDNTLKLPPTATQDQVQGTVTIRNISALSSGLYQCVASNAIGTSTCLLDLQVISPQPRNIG

[3] = molecular target: T1, human IGSF11 (VSIG3) on cells; test: FACS, IgG1-format antibodies; DMS 273 cells (D) treated with scrambled control siRNA (SC)
[4] = molecular target: T2, His-tagged extracellular domain (ECD) …; test: ELISA: IgG1-format antibody titrated on coated His-tagged IGSF11; x axis nM IgG, y axis absorbance per legend
[5] = molecular target: T1, human IGSF11 (VSIG3) on cells; test: FACS, IgG1-format antibodies; DMS 273 cells (D) treated with IGSF11 siRNA (KD)
[6] = molecular target: T1, human IGSF11 (VSIG3) on cells; test: FACS, IgG1-format antibodies; CL-11 cells (C), a line that does not express IGSF11 (specificity control), IGSF11 siRNA (KD)
[7] = molecular target: T3, recombinant human IGSF11 (VSIG3) extracellular domain (ECD) (human, UniProt Q5DX21 23-241, biotinylated where captured on streptavidin); test: BLI, IgG1
T3 construct: also called biotinylated recombinant ECD-IGSF11; IGSF11 (ECD domain)
T3 sequence: T2 sequence

[8] = molecular target: T2, His-tagged extracellular domain (ECD) …; test: ELISA EC50 grade, IgG1
[9] = molecular target: T1, human IGSF11 (VSIG3) on cells; test: FACS, IgG1-format antibodies; M579-A2-luc cells (M) treated with scrambled control siRNA (SC)
[10] = molecular target: T1, human IGSF11 (VSIG3) on cells; test: FACS, IgG1-format antibodies; CL-11 cells (C), a line that does not express IGSF11 (specificity control), scrambled control siRNA (SC)
[11] = molecular target: T3, recombinant human IGSF11 (VSIG3) …; test: SPR, IgG1
[12] = molecular target: T1, human IGSF11 (VSIG3) on cells; test: FACS, HEK cells expressing IGSF11
[13] = molecular target: T1, human IGSF11 (VSIG3) on cells; test: FACS, IgG1-format antibodies; M579-A2-luc cells (M) treated with IGSF11 siRNA (KD)
[14] = molecular target: T2, His-tagged extracellular domain (ECD) …; test: ELISA: IgG1-format antibody titrated on coated His-tagged IGSF11; x axis nM IgG, y axis absorbance per legend; remark: listed apart in the source
[15] = molecular target: T2, His-tagged extracellular domain (ECD) …; test: blocking ELISA: antibody pre-incubated with His-tagged IGSF11 ECD, complexes added to immobilised VSIR-Fc; y axis % remaining IGSF11 binding to VSIR, x axis nM IgG per legend; remark: listed apart in the source
[16] = molecular target: T4, IgC2 domain of human IGSF11 fused to murine IgG2a Fc-region (human; mouse, UniProt Q5DX21 137-241); test: ELISA, IgG
T4 construct: also called IgC2-like domain mFc fusion; not shown: murine IgG2a Fc-region
T4 sequence: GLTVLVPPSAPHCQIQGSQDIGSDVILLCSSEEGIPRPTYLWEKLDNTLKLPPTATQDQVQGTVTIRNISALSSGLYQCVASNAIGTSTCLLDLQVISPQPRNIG

[17] = molecular target: T5, IGSF11 ECD fused to murine-Fc (human; mouse, UniProt Q5DX21 23-241); test: ELISA, IgG
T5 construct: also called Fc-fusion IGSF11 ECD; full-length ECD of IGSF11; not shown: murine Fc
T5 sequence: T2 sequence

[18] = molecular target: T3, recombinant human IGSF11 (VSIG3) …; test: BLI, apparent affinity, IgG captured, IGSF11 ECD 100 nM
Excerpt: Briefly, various APBs were loaded on an optical biosensor via a commercially available Capture System (AHC sensors, ForteBio).

murine IGSF11 on cells [19] = molecular target: T6, murine IGSF11 on cells (mouse, UniProt P0C673 23-428); test: FACS, MC38-IGSF11 cells, IgG
T6 construct: UniProt P0C673; also called MC38-IGSF11 (murine); CT26-IGSF11 (murine)
T6 sequence: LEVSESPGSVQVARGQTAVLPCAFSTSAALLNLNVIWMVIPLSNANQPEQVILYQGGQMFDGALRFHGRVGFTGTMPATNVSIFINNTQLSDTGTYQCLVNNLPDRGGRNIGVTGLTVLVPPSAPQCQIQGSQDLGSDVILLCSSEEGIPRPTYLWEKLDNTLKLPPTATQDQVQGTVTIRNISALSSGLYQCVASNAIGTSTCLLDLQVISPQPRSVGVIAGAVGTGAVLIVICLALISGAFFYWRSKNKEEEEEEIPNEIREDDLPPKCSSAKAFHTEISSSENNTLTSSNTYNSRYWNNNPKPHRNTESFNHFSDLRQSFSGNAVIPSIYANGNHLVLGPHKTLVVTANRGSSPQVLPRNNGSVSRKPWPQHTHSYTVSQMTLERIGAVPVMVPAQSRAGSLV
Excerpt: (§1) Unbound antibodies were removed by washing the cells three time with FACS buffer. Bound antibodies were detected with a mouse anti-human IgG antibody conjugated with AlexaFluor647.

murine IGSF11 on cells [20] = molecular target: T6, murine IGSF11 on cells; test: FACS, CT26-IGSF11 cells, IgG
Excerpt: as §1

[21] = molecular target: T1, human IGSF11 (VSIG3) on cells; test: FACS, MDA-MB-231-IGSF11 cells, IgG
Excerpt: as §1

[22] = molecular target: T5, IGSF11 ECD fused to murine-Fc; test: ELISA, IgG; remark: listed apart in the source
Excerpt: Expi293 cells (ThermoFisher) were transiently transfected with DNA sequences encoding the applicable IGSF11 domain-mFc fusions according to the manufacturer's instructions, and cultured under conditions suitable to the IGSF11 domain fusion. Cell supernatants were harvested 5 days post transfection and the expressed Fc-protein purified via Protein A affinity chromatography (GE Healthcare). IGSF11 domain Fc-fusion proteins were re-buffered into PBS pH7.4. […] The surface was blocked with 2% (w/v) skim milk powder in PBST. After three wash cycles with PBST, a dilution series of IgG-format ABPs was transferred to the immobilized the Fc-fusion IGSF11 ECD or the IGSF11 domains and incubated for 1 h. After removing all unbound antibodies by 3 wash cycles with PBST, bound IgG ABPs were detected with a goat anti-human IgG antibody conjugated with horseradish peroxidase. After three wash cycles with PBST the ELISA was developed with TMB substrate.

B2: B-006 (chain-swapped IgG1) (antibody, V domains shown)
VH: EVQLVESGGGLIQPGGSLRLSCAASGFTVSSNYMSWVRQAPGKGLEWVSVIYSGGSTYYADSVKGRFTISRDNSKNTLYLQMNSLRAEDTAVYYCARGNPYYYGDLQVNFDYWGQGTLVTVSS
VL: QAVVTQEPSLTVSPGETVTLTCASSTGAVTSGYYPNWFQQRPGQAPRALIYSTSNKDSWTPARFSGSLLGGKAALTLSGVQPEDEAEYYCLLYYGGAWVFGGGTKLTVL
notes: human IgG1 format; also called B6
EC50 (read off the curve) [14]: ~0.02 nM
IC50 (read off the curve) [15]: ~5 nM

B3: B-003 (chain-swapped IgG1) (antibody, V domains shown)
VH: B2 VH with V5L, A24V
VL: B2 VL
notes: human IgG1 format; also called B3
IC50 (read off the curve) [2]: ~2 nM
EC50 (read off the curve) [4]: ~0.008 nM

B5: B-007 (chain-swapped IgG1) (antibody, V domains shown)
VH: B2 VH
VL: B2 VL with E16G, G32A, R41K, D57H, E87D
notes: human IgG1 format; also called B7
EC50 (read off the curve) [14]: ~0.01 nM
IC50 (read off the curve) [15]: ~3 nM

B6: C-011 (IgG1 format) (antibody, V domains shown)
VH: QVQLVQSGAEVKKPGSSVKVSCKASGGTFSSYAISWVRQAPGQGLEWMGGIIPIFGTANYAQKFQGRVTITADESTSTAYMELSSLRSEDTAVYYCARHSTPSFLQYWGQGTLVTVSS
VL: SYELTQPPSVSVSPGQTASITCSGDKLGDKYASWYQQKPGQSPVLVIYQDSKRPSGIPERFSGSNSGNTATLTISGTQAEDEADYYCAVYPAHASARWVFGGGTKLTVL
notes: wildtype human IgG1 and kappa or lambda constant regions
EC50 [16]: < 1 nM
EC50 [17]: < 1 nM

B8: A-011 (IgG1 format) (antibody, V domains shown)
VH: QVQLVESGGGVVQPGRSLRLSCAASGFTFSSYAMHWVRQAPGKGLEWVAVISYDGSNKYYADSVKGRFTISRDNSKNTLYLQMNSLRAEDTAVYYCAEGGALNYYGMDVWGQGTTVTVSS
VL: SSELTQDPGVSVALGQTVRITCQGDSLRHFYATWYQQKPGQAPILVIYGKNNRPSGIPDRFSGSSSEDTASLTITGAQAEDEADYYCQSRDPRNNHLIFGGGTKLIVL
notes: human IgG1 format
percentage binding (FACS heat-map) [3]: 6.95%
percentage binding (FACS heat-map) [5]: 3.4%
percentage binding (FACS heat-map) [6]: 4.86%
Kd [7]: 10 to 20 nM
EC50 [8]: < 0.02 nM
percentage binding (FACS heat-map) [9]: 2.05%
percentage binding (FACS heat-map) [10]: 2.87%
Kd [11]: 250 to 500 nM
EC50 [12]: > 50 nM
EC50 [22]: < 1 nM
percentage binding (FACS heat-map) [13]: 2.41%

Further lines, results first:

EC50 [1]: 10 to 50 nM
IC50 (read off the curve) [2]: ~2 nM
percentage binding (FACS heat-map) [3]: 75.8%
EC50 (read off the curve) [4]: ~0.007 nM
percentage binding (FACS heat-map) [5]: 4.77%
percentage binding (FACS heat-map) [6]: 3.93%
Kd [7]: 1 to 10 nM
EC50 [8]: 0.02 to 0.05 nM
percentage binding (FACS heat-map) [9]: 65.4%
percentage binding (FACS heat-map) [10]: 5.11%
Kd [11]: 250 to 500 nM
EC50 [12]: 10 to 50 nM
percentage binding (FACS heat-map) [13]: 2.35%
B1: A-012 (IgG1 format) (antibody, V domains shown)
VH: B2 VH with V5L, A24V
VL: B2 VL with E16G, R41K, D57H
notes: human IgG1 format

IC50 (read off the curve) [2]: ~2 nM
EC50 (read off the curve) [4]: ~0.01 nM
B4: B-005 (chain-swapped IgG1) (antibody, V domains shown)
VH: B2 VH with V5L, A24V
VL: B2 VL with E16G, L20P, A23G, Y33N, Y34L, R41K, D57H, F64I
notes: human IgG1 format; also called B5

EC50 [16]: < 1 nM
EC50 [17]: < 1 nM
Kd [18]: < 15 nM
EC50 (murine IGSF11 on cells [19]): < 20 nM
EC50 (murine IGSF11 on cells [20]): < 20 nM
EC50 [21]: 10 to 15 nM
B7: C-003 (IgG1 format) (antibody, V domains shown)
VH: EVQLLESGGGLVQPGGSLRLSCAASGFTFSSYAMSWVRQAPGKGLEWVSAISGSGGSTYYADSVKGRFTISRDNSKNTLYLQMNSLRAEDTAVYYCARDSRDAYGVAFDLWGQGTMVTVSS
VL: ASVLTQPPSVSAAPGQKVTISCSGSSSNIGNNYVSWYQQLPGTAPKLLIYDNNKRPSGIPDRFSGSKSGTSATLGITGLQAEDEADYYCLSYTSSQYVFGGGTKLTVL
notes: as for B6

EC50 [16]: < 1 nM
EC50 [17]: 1 to 20 nM
B9: C-014 (IgG1 format) (antibody, V domains shown)
VH: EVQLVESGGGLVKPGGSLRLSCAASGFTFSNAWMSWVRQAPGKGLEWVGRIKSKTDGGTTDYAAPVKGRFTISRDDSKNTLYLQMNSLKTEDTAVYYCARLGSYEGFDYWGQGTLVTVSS
VL: SYELTQPPSVSVSPGQTASITCSGDKLGDKYASWYQQKPGQSPVLVIYQDSKRPSGIPERFSGSNSGNTATLTISGTQAEDEADYYCSTYTVTSSVVVFGGGTKLTVL
notes: as for B6
